Patent US12577311

Legend:
[1] = target: CD70 on CD70+ skrc-59 ccRCC cells (UniProt P32970); assay: FACS binding; conditions: Fc fusion
[2] = target: CD70-APC (UniProt P32970); assay: FACS binding
Chain of CD70-APC (P32970 39-193): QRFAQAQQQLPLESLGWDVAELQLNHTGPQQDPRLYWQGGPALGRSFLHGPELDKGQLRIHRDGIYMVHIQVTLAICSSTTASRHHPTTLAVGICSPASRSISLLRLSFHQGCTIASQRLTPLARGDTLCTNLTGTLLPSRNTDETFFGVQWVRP

Chain of CD70 on CD70+ skrc-59 ccRCC cells (P32970 whole entry, the tested form may be a part): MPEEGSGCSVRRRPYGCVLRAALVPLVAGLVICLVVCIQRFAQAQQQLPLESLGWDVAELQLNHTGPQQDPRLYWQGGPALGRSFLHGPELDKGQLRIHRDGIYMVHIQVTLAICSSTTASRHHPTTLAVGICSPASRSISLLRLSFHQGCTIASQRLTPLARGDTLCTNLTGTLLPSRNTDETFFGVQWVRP

EC50 [1] | EC50 [2] | Substance
0.114 µg/mL |  | anti-CD70 minibody #7 (from UniProt P01721 20-117)
 | 0.917 µg/mL | CD27
